Measured values: patent US20200399344A1 (SHATTUCK LABS, published 2020)
Several values for one entry are separate records, joined by “and”; a condition that tells them apart may be missing. Equal values may be shown once.

Experiments:
[1] = biological target: T1, mCTLA-4, plate-bound (mouse, UniProt P09793 36-162, limits assumed); assay: ELISA (single-sided): coat mCTLA-4 (R&D), detect Anti-mFc-HRP (Jax)
[2] = biological target: T2, HLA class I histocompatibility antigen, alpha chain E (HLA-E), plate-bound recombinant protein (human, UniProt P13747 22-305, limits assumed); assay: ELISA (single-sided): coat hHLA-E (Novus), detect Anti-mFc-HRP (Jax)
T2 construct: no tag named there; also called recombinant HLA-E protein
T2 sequence (P13747 22-305 limits assumed): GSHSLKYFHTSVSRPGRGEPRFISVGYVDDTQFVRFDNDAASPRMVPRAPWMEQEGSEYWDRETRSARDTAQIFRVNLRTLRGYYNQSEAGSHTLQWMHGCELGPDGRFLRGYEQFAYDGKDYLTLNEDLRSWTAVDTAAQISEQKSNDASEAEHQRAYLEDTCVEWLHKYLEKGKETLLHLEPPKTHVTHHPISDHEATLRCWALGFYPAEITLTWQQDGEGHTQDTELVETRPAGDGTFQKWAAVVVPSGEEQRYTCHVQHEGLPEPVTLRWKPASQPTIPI

[3] = biological target: T3, recombinant mCD47 (mCD47-His) protein (mouse, UniProt Q61735 19-140, limits assumed); assay: dual/PK ELISA; coat αNKG2a (1:10k), mCD86-fc-NKG2a titrated, detection mCD47-His (5ug/ml), His-HRP
T3 construct: not shown: His tag
T3 sequence (looked up): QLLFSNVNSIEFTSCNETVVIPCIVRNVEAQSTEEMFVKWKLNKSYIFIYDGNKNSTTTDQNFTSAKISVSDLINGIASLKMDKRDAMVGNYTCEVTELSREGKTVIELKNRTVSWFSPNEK
Description: Increasing amounts of the mSIRPα-Fc-NKG2A chimeric protein was added and detected using mCD47-His. The CD86-Fc-NKG2A chimeric protein was used as a negative control.
To understand whether the mSIRPα-Fc-NKG2A chimeric protein can binds simultaneously to both anti-NKG2a and CD47, the following ELISA experiment was carried out. Briefly, and anti-NKG2a antibody was coated on plates. Increasing amounts of the mSIRPα-Fc-NKG2A and mCD48-Fc-NKG2A chimeric proteins were added to the plates for capture by the anti-NKG2a antibody. Further, recombinant mCD47 (mCD47-His) protein was added to the plate for capture by mSIRPα-Fc-NKG2A chimeric protein. The binding of the mCD47-His protein was detected using an anti-His HRP antibody.

[4] = biological target: T4, goat anti-mCD48 antibody; assay: Dual binding ELISA: coat mHLA-E (Novus) as printed, detect Anti-mCD48 (R&D), HRP Anti-Goat HRP; flat curve
T4 construct: also called anti-CD48; Anti-CD48

[5] = biological target: T1, mCTLA-4, plate-bound; assay: ELISA (single-sided): coat mCTLA-4 (R&D), detect Anti-mFc-HRP (Jax); curve near the baseline, about 0.25 only at the highest concentration
[6] = biological target: T5, PD-L1, plate-bound (Example 8) (Homo sapiens (Human), UniProt Q9NZQ7 19-238); assay: Dual ELISA (capturing with PDL1): coat hPDL1-Fc (R&D), detect hHLA-E (Novus), HRP Anti-6X His; curve low, about 0.45 at the highest concentration
T5 construct: not shown: The Fc carrier of the vendor's hPD-L1-Fc (R&D) and any linker
T5 sequence (Q9NZQ7 19-238 limits assumed): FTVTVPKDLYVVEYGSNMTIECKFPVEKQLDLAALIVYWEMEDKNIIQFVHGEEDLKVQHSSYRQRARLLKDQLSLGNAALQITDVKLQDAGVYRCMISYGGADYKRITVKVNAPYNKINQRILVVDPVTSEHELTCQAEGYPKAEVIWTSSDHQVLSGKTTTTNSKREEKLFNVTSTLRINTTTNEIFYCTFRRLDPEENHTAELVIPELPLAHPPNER

B1: mouse CD86-Fc-NKG2A chimeric protein (Fc fusion)
chain: VSVETQAYFNGTAYLPCPFTKAQNISLSELVVFWQDQQKLVLYEHYLGTEKLDSVNAKYLGRTSFDRNNWTLRLHNVQIKDMGSYDCFIQKKPPTGSIILQQTLTELSVIANFSEPEIKLAQNVTGNSGINLTCTSKQGHPKPKKMYFLITNSTNEYGDNMQISQDNVTELFSISNSLSLSFPDGVWHMTVVCVLETESMKISSKPLNFTQEFPSPQTYWKVPRDCGCKPCICTVPEVSSVFIFPPKPKDVLTITLTPKVTCVVVDISKDDPEVQFSWFVDDVEVHTAQTQPREEQFNSTFRSVSELPIMHQDWLNGKEFKCRVNSAAFPAPIEKTISKTKGRPKAPQVYTIPPPKEQMAKDKVSLTCMITDFFPEDITVEWQWNGQPAENYKNTQPIMDTDGSYFVYSKLNVQKSNWEAGNTFTCSVLHEGLHNHHTEKSLSHSPGIIEGRMDTPYTEAKAQINSSMTRTHRDINYTLSSAQPCPHCPKEWISYSHNCYFIGMERKSWNDSLVSCISKNCSLLYIDSEEEQDFLQSLSLISWTGILRKGRGQPWVWKEDSIFKPKIAEILHDECNCAMMSASGLTADNCTTLHPYLCKCKFPI
notes: Batch 1 and Batch 2 were tested; also called mCD86-Fc-NKG2A
With B1 as the binder, how does the EC50 [1] read?
Its EC50 is 0.000658 µM.

What about the EC50 [2] of the same binder?
Its EC50 is 0.0661 µM and 0.0832 µM.

Does B1 bind [3]?
Result: no binding (tested: about log 1.8 ug/ml (roughly 60 ug/ml))

What about the EC50 [4] of the same binder?
Its EC50 is ~0.00555 µM.

What about the EC50 [5] of the same binder?
Its EC50 is ~4050 µM.

And the EC50 [6]?
Its EC50 is 1.65 µM.
